According to IntAct's records for PubMed 19913487:

B1: ATP-dependent RNA helicase DDX3X (Homo sapiens), O00571 (parent)
chain: MSHVAVENALGLDQQFAGLDLNSSDNQSGGSTASKGRYIPPHLRNREATKGFYDKDSSGWSSSKDKDAYSSFGSRSDSRGKSSFFSDRGSGSRGRFDDRGRSDYDGIGSRGDRSGFGKFERGGNSRWCDKSDEDDWSKPLPPSERLEQELFSGGNTGINFEKYDDIPVEATGNNCPPHIESFSDVEMGEIIMGNIELTRYTRPTPVQKHAIPIIKEKRDLMACAQTGSGKTAAFLLPILSQIYSDGPGEALRAMKENGRYGRRKQYPISLVLAPTRELAVQIYEEARKFSYRSRVRPCVVYGGADIGQQIRDLERGCHLLVATPGRLVDMMERGKIGLDFCKYLVLDEADRMLDMGFEPQIRRIVEQDTMPPKGVRHTMMFSATFPKEIQMLARDFLDEYIFLAVGRVGSTSENITQKVVWVEESDKRSFLLDLLNATGKDSLTLVFVETKKGADSLEDFLYHEGYACTSIHGDRSQRDREEALHQFRSGKSPILVATAVAARGLDISNVKHVINFDLPSDIEEYVHRIGRTGRVGNLGLATSFFNERNINITKDLLDLLVEAKQEVPSWLENMAYEHHYKGSSRGRSKSSRFSGGFGARDYRQSSGASSSSFSSSRASSSRSGGGGHGSSRGFGGGGYGGFYNSDGYGGNYNSQGVDWWGN

Variants of: B1
Conditions: with pg044_vaccw OPG044, P68466
For F84A;F85A, the “effect of a mutation on the interaction” value was “disrupting interaction”.
